Read-outs that look alike come from different tables or passages of the source.

Common to all, as to assay: cell-based or functional assay
Assay [1] has as its target activin A (UniProt P08476).
Assay [2] has as its target BMP9 (UniProt Q9UK05).
Assay [3] addresses GDF11 (UniProt O95390).
The target in assay [4] is T1, GDF11 (UniProt O95390).
T1 sequence (looked up): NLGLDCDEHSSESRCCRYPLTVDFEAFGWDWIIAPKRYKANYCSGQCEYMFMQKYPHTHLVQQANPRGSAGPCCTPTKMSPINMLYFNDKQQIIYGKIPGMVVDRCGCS
This is another data set of the same source.

In assay [5] the target is T2, BMP9 (UniProt Q9UK05).
T2 sequence (looked up): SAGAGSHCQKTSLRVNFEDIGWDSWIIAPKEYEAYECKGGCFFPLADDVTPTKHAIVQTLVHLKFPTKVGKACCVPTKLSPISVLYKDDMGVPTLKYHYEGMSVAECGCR
The source holds these as a separate data set.

Assay [6] addresses T3, activin A (UniProt P08476).
T3 sequence (looked up): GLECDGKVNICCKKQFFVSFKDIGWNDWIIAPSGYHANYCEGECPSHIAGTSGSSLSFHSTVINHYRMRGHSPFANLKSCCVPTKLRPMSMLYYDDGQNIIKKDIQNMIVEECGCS
This is another data set of the same source.

Assay [7] addresses T1, GDF11. The source holds these as a separate data set.
For assay [8], the target named is T4, BMP10 (UniProt O95393).
T4 sequence (looked up): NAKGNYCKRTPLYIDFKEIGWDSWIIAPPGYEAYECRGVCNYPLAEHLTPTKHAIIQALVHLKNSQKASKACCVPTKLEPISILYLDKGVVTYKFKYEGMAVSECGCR

The target of assay [9] is T2, BMP9. This is another data set of the same source.
The target in assay [10] is T3, activin A. The source holds these as a separate data set.
The target in assay [11] is T5, activin B (UniProt P09529).
T5 sequence (looked up): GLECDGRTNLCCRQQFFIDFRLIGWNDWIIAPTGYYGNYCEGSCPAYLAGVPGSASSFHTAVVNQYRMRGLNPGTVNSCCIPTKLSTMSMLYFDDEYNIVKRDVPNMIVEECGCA

Assay [12] has as its target T6, GDF8 (UniProt O14793).
T6 sequence (looked up): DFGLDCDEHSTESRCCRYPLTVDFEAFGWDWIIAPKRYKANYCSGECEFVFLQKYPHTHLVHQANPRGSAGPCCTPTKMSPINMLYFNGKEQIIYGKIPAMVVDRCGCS

The target of assay [13] is BMP10 (UniProt O95393). This is another data set of the same source.
Assay [14] has as its target activin A (UniProt P08476). This is another data set of the same source.
Assay [15] addresses activin B (UniProt P09529). The source holds these as a separate data set.
Assay [16] deals with GDF8 (UniProt O14793). The source holds these as a separate data set.
In assay [17] the target is GDF11 (UniProt O95390). This is another data set of the same source.

Sequence of ActRIIB(20-134)-G1Fc (Fc fusion) (chain): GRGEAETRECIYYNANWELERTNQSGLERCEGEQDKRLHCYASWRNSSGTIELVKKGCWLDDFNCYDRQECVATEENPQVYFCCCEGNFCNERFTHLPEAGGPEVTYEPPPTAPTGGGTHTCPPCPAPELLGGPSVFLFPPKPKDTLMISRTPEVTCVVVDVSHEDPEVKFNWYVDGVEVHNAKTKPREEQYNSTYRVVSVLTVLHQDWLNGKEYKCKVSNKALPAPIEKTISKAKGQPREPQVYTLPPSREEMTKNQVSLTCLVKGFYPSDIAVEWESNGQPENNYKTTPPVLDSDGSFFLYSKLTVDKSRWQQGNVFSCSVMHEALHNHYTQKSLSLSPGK

On to ActRIIB(K55A)-G1Fc (Fc fusion), for which the IC50, A204 CAGA12 reporter gene assay in assay [1] was found to be 0.015 µg/mL; in assay [2], 0.122 µg/mL; in assay [3] it was 0.011 µg/mL.
For “variant ActRIIB-Fc polypeptide A24N (Fc fusion)”, the IC50, A204 CAGA12 reporter gene assay in assay [4] turned out to be 0.099 µg/mL; in assay [5] it was 0.409 µg/mL; in assay [6], 0.128 µg/mL.
For the substance ActRIIB(20-134)-G1Fc (Fc fusion), the IC50, A204 CAGA12 reporter gene assay in [7] is 120 pM; in [8], 36 pM; in [9] it was 1820 pM; in [10], 50 pM; in [11] it was 67 pM; in assay [12], 950 pM. In addition, the figures for the IC50, A204 CAGA12 reporter gene assay in [4], in [5] and in assay [6] were 0.009 µg/mL, 0.031 µg/mL and 0.008 µg/mL, respectively.
Take ActRIIB(K55E)-G1Fc (Fc fusion): the values for the IC50, A204 CAGA12 reporter gene assay in assay [1], in assay [2] and in assay [3] were 0.019 µg/mL, 0.29 µg/mL and 0.014 µg/mL, respectively.
In the case of “variant ActRIIB-Fc polypeptide L79K (Fc fusion)”, in [4], the IC50, A204 CAGA12 reporter gene assay stood at 0.477 µg/mL.
With “variant ActRIIB-Fc polypeptide K55R (Fc fusion)”, the IC50, A204 CAGA12 reporter gene assay in assay [4] was found to be 0.318 µg/mL; in assay [5], 0.777 µg/mL; in assay [6] it was 0.206 µg/mL.
Regarding “variant ActRIIB-Fc polypeptide K74R (Fc fusion)”, the IC50, A204 CAGA12 reporter gene assay in assay [4] stood at 0.045 µg/mL; in assay [5] it was 0.165 µg/mL.
Regarding “variant ActRIIB-Fc polypeptide K55D (Fc fusion)”, the IC50, A204 CAGA12 reporter gene assay in assay [4] was found to be 0.365 µg/mL; in [5], 5.5 µg/mL; in assay [6] it was 0.396 µg/mL.
The corresponding values for “variant ActRIIB-Fc polypeptide E50K (Fc fusion)” are 0.18 µg/mL, 0.721 µg/mL and 0.132 µg/mL.
In the case of “variant ActRIIB-Fc polypeptide R40A (Fc fusion)”, the figures for the IC50, A204 CAGA12 reporter gene assay in assay [4] and in assay [5] were 0.591 µg/mL and 1.21 µg/mL, respectively.
On to ActRIIB(F82K)-G1Fc (Fc fusion), for which the IC50, A204 CAGA12 reporter gene assay in assay [1] came to 0.01 µg/mL; in assay [2] it was 5 µg/mL; in [3], 0.015 µg/mL.
Substance “variant ActRIIB-Fc polypeptide Y60K (Fc fusion)” returned an IC50, A204 CAGA12 reporter gene assay in [4] of 0.414 µg/mL.
The same measure, in the same setting: under “variant ActRIIB-Fc polypeptide F82W (Fc fusion)” stands 0.276 µg/mL.
Same read-out and setting: next, “variant ActRIIB-Fc polypeptide L79R (Fc fusion)”: 0.234 µg/mL.
For “variant ActRIIB-Fc polypeptide E52A (Fc fusion)”, the IC50, A204 CAGA12 reporter gene assay was 0.071 µg/mL in assay [4], 0.359 µg/mL in assay [5] and 0.198 µg/mL in assay [6].
With ActRIIB(F82I)-G1Fc (Fc fusion), the IC50, A204 CAGA12 reporter gene assay turned out to be 0.011 µg/mL in assay [1], 0.277 µg/mL in assay [2] and 0.009 µg/mL in [3].
“variant ActRIIB-Fc polypeptide F82W/N83A (Fc fusion)”: the IC50, A204 CAGA12 reporter gene assay in assay [4] turned out to be 0.389 µg/mL; in assay [5], 40 µg/mL.
As for “variant ActRIIB-Fc polypeptide Y60P (Fc fusion)”, in [4], the IC50, A204 CAGA12 reporter gene assay came out at 0.544 µg/mL.
On to “variant ActRIIB-Fc polypeptide E52K (Fc fusion)”, for which the IC50, A204 CAGA12 reporter gene assay in [4] was 0.296 µg/mL; in assay [5], 10 µg/mL; in [6] it was 0.762 µg/mL.
As to ActRIIB(F82T)-G1Fc (Fc fusion), the IC50, A204 CAGA12 reporter gene assay in assay [13] turned out to be 70 pM; in assay [14], 100 pM; in assay [15], 90 pM; in assay [16], 2170 pM; in assay [17], 270 pM.
Consider “variant ActRIIB-Fc polypeptide E50P (Fc fusion)”, for which the figures for the IC50, A204 CAGA12 reporter gene assay in assay [4], in [5] and in assay [6] were 0.638 µg/mL, 3 µg/mL and 0.756 µg/mL, respectively.

Source of the values: patent publication US20240197902A1.
